# Experimental data as given in IntAct's records for PubMed 15361138.
# B1: Transcription factor MYB75 (Arabidopsis thaliana (Mouse-ear cress)), Q9FE25 (parent)
# chain: MEGSSKGLRKGAWTTEEDSLLRQCINKYGEGKWHQVPVRAGLNRCRKSCRLRWLNYLKPSIKRGKLSSDEVDLLLRLHRLLGNRWSLIAGRLPGRTANDVKNYWNTHLSKKHEPCCKIKMKKRDITPIPTTPALKNNVYKPRPRSFTVNNDCNHLNAPPKVDVNPPCLGLNINNVCDNSIIYNKDKKKDQLVNNLIDGDNMWLEKFLEESQEVDILVPEATTTEKGDTLAFDVDQLWSLFDGETVKFD
# partner: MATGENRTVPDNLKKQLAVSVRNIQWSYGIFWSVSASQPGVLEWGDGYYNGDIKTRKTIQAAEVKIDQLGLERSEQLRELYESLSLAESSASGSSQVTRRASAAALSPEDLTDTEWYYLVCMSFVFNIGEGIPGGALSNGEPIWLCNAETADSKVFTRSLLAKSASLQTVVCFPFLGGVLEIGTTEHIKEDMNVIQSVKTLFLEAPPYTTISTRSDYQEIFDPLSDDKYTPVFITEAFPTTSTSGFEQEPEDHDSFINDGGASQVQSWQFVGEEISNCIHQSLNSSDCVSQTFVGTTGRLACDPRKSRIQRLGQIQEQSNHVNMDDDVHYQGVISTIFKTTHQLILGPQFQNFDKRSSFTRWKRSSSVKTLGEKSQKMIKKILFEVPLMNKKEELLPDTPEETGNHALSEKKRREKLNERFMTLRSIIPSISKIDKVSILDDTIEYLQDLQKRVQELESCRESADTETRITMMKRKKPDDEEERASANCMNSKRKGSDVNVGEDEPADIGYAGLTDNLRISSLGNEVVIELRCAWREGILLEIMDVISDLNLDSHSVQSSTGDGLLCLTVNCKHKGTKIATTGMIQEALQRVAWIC
# Variants of: B1
# Settings: with egl1_arath BHLH2, Q9CAD0
row,Variant,effect of a mutation on the interaction
1,MEGSSKGLRKGAWTTEEDSLLRQCINKYGEGKWHQVPVRAGLNRCRKSCRLRWLNYLKPSIKRGKLSSDEVDILLRLHRLLGNRWSLIAGRLPGRTANDVKNYWNTHLSKKHEPCCKIKMKKRDITPIPTTPALKNNVYKPRPRSFTVNNDCNHLNAPPKVDVNPPCLGLNINNVCDNSIIYNKDKKKDQLVNNLIDGDNMWLEKFLEESQEVDILVPEATTTEKGDTLAFDVDQLWSLFDGETVKFD [L73I],decreasing interaction
2,MEGSSKGLRKGAWTTEEDSLLRQCINKYGEGKWHQVPVRAGLNRCRKSCRLRWLNYLKPSIKRGKLSSDEVDLLLRLHRLLGNRWSLIAGDLPGRTANDVKNYWNTHLSKKHEPCCKIKMKKRDITPIPTTPALKNNVYKPRPRSFTVNNDCNHLNAPPKVDVNPPCLGLNINNVCDNSIIYNKDKKKDQLVNNLIDGDNMWLEKFLEESQEVDILVPEATTTEKGDTLAFDVDQLWSLFDGETVKFD [R91D],decreasing interaction
3,MEGSSKGLRKGAWTTEEDSLLRQCINKYGEGKWHQVPVRAGLNRCRKSCRLRWLNYLKPSIKRGKLSSDEVDLLLRLHRLLGNRWSLIAGALPGRTANDVKNYWNTHLSKKHEPCCKIKMKKRDITPIPTTPALKNNVYKPRPRSFTVNNDCNHLNAPPKVDVNPPCLGLNINNVCDNSIIYNKDKKKDQLVNNLIDGDNMWLEKFLEESQEVDILVPEATTTEKGDTLAFDVDQLWSLFDGETVKFD [R91A],decreasing interaction
4,MEGSSKGLRKGAWTTEEDSLLRQCINKYGEGKWHQVPVRAGLNRCRKSCRLRWLNYLKPSIKRGKLSSDEVDLLLELHRLLGNRWSLIAGRLPGRTANDVKNYWNTHLSKKHEPCCKIKMKKRDITPIPTTPALKNNVYKPRPRSFTVNNDCNHLNAPPKVDVNPPCLGLNINNVCDNSIIYNKDKKKDQLVNNLIDGDNMWLEKFLEESQEVDILVPEATTTEKGDTLAFDVDQLWSLFDGETVKFD [R76E],decreasing interaction
5,MEGSSKGLRKGAWTTEEDSLLRQCINKYGEGKWHQVPVRAGLNRCRKSCRLRWLNYLKPSIKRGKLSSDEVDLLLKLHRLLGNRWSLIAGRLPGRTANDVKNYWNTHLSKKHEPCCKIKMKKRDITPIPTTPALKNNVYKPRPRSFTVNNDCNHLNAPPKVDVNPPCLGLNINNVCDNSIIYNKDKKKDQLVNNLIDGDNMWLEKFLEESQEVDILVPEATTTEKGDTLAFDVDQLWSLFDGETVKFD [R76K],decreasing interaction
6,MEGSSKGLRKGAWTTEEDSLLRQCINKYGEGKWHQVPVRAGLNRCRKSCRLRWLNYLKPSIKRGKLSSDEVDLLLRLHRALGNRWSLIAGRLPGRTANDVKNYWNTHLSKKHEPCCKIKMKKRDITPIPTTPALKNNVYKPRPRSFTVNNDCNHLNAPPKVDVNPPCLGLNINNVCDNSIIYNKDKKKDQLVNNLIDGDNMWLEKFLEESQEVDILVPEATTTEKGDTLAFDVDQLWSLFDGETVKFD [L80A],decreasing interaction
7,MEGSSKGLRKGAWTTEEDSLLRQCINKYGEGKWHQVPVRAGLNRCRKSCRLRWLNYLKPSIKRGKLSSDEVDLLLRLHSLLGNRWSLIAGRLPGRTANDVKNYWNTHLSKKHEPCCKIKMKKRDITPIPTTPALKNNVYKPRPRSFTVNNDCNHLNAPPKVDVNPPCLGLNINNVCDNSIIYNKDKKKDQLVNNLIDGDNMWLEKFLEESQEVDILVPEATTTEKGDTLAFDVDQLWSLFDGETVKFD [R79S],decreasing interaction
